Experimental findings from paper PMC4485890, “Structural Basis for the Specificity of Human NUDT16 and Its Regulation by Inosine Monophosphate” (PLoS ONE, 2015) are described below.

Data set [1] deals with the molecule itself. The data set can be described thus: crystal structure; apo form (1.80 Å) and IMP/Mg2+-bound form (1.72 Å), space group F23; one monomer in the asymmetric unit, dimer with a symmetry-related molecule.
Data set [2] deals with the molecule itself. Briefly: SEC; analytical gel filtration of NUDT16 wild-type against standard proteins; protocol in S1 Text. In general terms: In gel filtration, larger molecules generally elute earlier.

Numbering of substitutions follows the chain as printed. Numbers in names are those of the source.

What is called stoichiometry N is a count of units in the complex or per binding partner.

B1: human NUDT16 A22V (construct used for crystallography) (enzyme, UniProt Q96DE0 1-195, looked up)
chain: MAGARRLELGEALALGSGWRHVCHALLYAPDPGMLFGRIPLRYAILMQMRFDGRLGFPGGFVDTQDRSLEDGLNRELREELGEAAAAFRVERTDYRSSHVGSGPRVVAHFYAKRLTLEELLAVEAGATRAKDHGLEVLGLVRVPLYTLRDGVGGLPTFLENSFIGSAREQLLEALQDLGLLQSGSISGLKIPAHH
notes: human NUDT16, full length, from MGC cDNA BC031215, which carries a mutation that replaces Ala22 by Val; A22V was already in the purchased cDNA and was not introduced by the authors; A TEV protease site follows the His6 tag; no cleavage is described for the crystallography sample; One monomer lies in the asymmetric unit and the dimer is formed by crystallographic symmetry; also called apo-NUDT16; …
Regarding B1, the binding result in data set [1] was “binds”.

B2: human NUDT16 wild-type (sample for analytical gel filtration) (enzyme, UniProt Q96DE0 1-195, looked up)
chain: B1 chain with V22A
notes: human NUDT16 wild-type (Ala22); expression and purification for gel filtration are described only in S1 Text
Consider B2, for which the “stoichiometry N” value in data set [2] worked out at 2.
